Test results published in PMC11533276, “Critical role of ROCK1 in AD pathogenesis via controlling lysosomal biogenesis and acidification” (Translational Neurodegeneration, 2024).

Molecular target: T1, TFEB (purified protein coupled to the SPR chip) (UniProt P19484 1-476)
T1 chain: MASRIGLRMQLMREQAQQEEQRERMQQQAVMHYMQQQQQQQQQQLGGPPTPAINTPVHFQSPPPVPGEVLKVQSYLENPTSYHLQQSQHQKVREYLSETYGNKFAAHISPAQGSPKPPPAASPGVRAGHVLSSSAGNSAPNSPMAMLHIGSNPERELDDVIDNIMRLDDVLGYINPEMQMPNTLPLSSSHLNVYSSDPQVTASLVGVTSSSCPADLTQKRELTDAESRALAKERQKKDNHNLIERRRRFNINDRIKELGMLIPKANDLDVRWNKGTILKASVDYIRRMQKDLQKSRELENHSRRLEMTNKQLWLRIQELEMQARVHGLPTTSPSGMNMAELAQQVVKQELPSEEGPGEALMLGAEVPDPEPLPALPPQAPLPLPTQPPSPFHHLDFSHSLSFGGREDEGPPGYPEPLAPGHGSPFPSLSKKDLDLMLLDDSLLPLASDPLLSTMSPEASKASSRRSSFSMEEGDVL
Test: SPR; TFEB immobilised on a CM5 chip by amine coupling; ROCK1 injected at 312.5 to 5000 nM for 90 s; Biacore T200
Conditions: both partners purified

- Kd: 1.61 µM
B1: ROCK1 (protein injected in SPR) (enzyme)
chain: STGDSFETRFEKMDNLLRDPKSEVNSDCLLDGLDALVYDLDFPALRKNKNIDNFLSRYKDTINKIRDLRMKAEDYEVVKVIGRGAFGEVQLVRHKSTRKVYAMKLLSKFEMIKRSDSAFFWEERDIMAFANSPWVVQLFYAFQDDRYLYMVMEYMPGGDLVNLMSNYDVPEKWARFYTAEVVLALDAIHSMGFIHRDVKPDNMLLDKSGHLKLADFGTCMKMNKEGMVRCDTAVGTPDYISPEVLKSQGGDGYYGRECDWWSVGVFLYEMLVGDTPFYADSLVGTYSKIMNHKNSLTFPDDNDISKEAKNLICAFLTDREVRLGRNGVEEIKRHLFFKNDQWAWETLRDTVAPVVPDLSSDIDTSNFDDLEEDKGEEETFPIPKAFVGNQLPFVGFTYYSNRRYLSSANPNDNRTSSNADKSLQESLQKTIYKLEEQLHNEMQLKDEMEQKCRTSNIKLDKIMKELDEEGNQRRNLESTVSQIEKEKMLLQHRINEYQRKAEQENEKRRNVENEVSTLKDQLEDLKKVSQNSQLANEKLSQLQKQLEEANDLLRTESDTAVRLRKSHTEMSKSISQLESLNRELQERNRILENSKSQTDKDYYQLQAILEAERRDRGHDSEMIGDLQARITSLQEEVKHLKHNLEKVEGERKEAQDMLNHSEKEKNNLEIDLNYKLKSLQQRLEQEVNEHKVTKARLTDKHQSIEEAKSVAMCEMEKKLKEEREAREKAENRVVQIEKQCSMLDVDLKQSQQKLEHLTGNKERMEDEVKNLTLQLEQESNKRLLLQNELKTQAFEADNLKGLEKQMKQEINTLLEAKRLLEFELAQLTKQYRGNEGQMRELQDQLEAEQYFSTLYKTQVKELKEEIEEKNRENLKKIQELQNEKETLATQLDLAETKAESEQLARGLLEEQYFELTQESKKAASRNRQEITDKDHTVSRLEEANSMLTKDIEILRRENEELTEKMKKAEEEYKLEKEEEISNLKAAFEKNINTERTLKTQAVNKLAEIMNRKDFKIDRKKANTQDLRKKEKENRKLQLELNQEREKFNQMVVKHQKELNDMQAQLVEECAHRNELQMQLASKESDIEQLRAKLLDLSDSTSVASFPSADETDGNLPESRIEGWLSVPNRGNIKRYGWKKQYVVVSSKKILFYNDEQDKEQSNPSMVLDIDKLFHVRPVTQGDVYRAETEEIPKIFQILYANEGECRKDVEMEPVQQAEKTNFQNHKGHEFIPTLYHFPANCDACAKPLWHVFKPPPALECRRCHVKCHRDHLDKKEDLICPCKVSYDVTSARDMLLLACSQDEQKKWVTHLVKKIPKNPPSGFVRASPRTLSTRSTANQSFRKVVKNTSGKTS
